Source: the DeepSol protein solubility set

Assay: soluble on expression in E. coli; label from the status in PepcDB or PDB records

Soluble on expression in E. coli, soluble:
SMGRRCQAQVSRRISFSASHRLYSKFLSDEENLKLFGKCNNPNGHGHNYKVVVTVHGEIDPATGMVMNLADLKKYMEEAIMQPLDHKNLDMDVPYFADVVSTTENVAVYIWDNLQKVLPVGVLYKVKVYETDNNIVVYKGE
MGSSHHHHHHSSGLVPRGSHMFLTRRDPPLSSFWTKVQYQRLKELNASGEQLEMGFSDALSRDRAFQGIEHQLMSQGKRHLEQLRTVKHRPALLELEEKLAKALHQQGFVQVVTPTIITKSALAKMTIGEDHPLFSQVFWLDGKKCLRPMLAPNLYTLWRELERLWDKPIRIFEIGTCYRKESQGAQHLNEFTMLNLTELGTPLEERHQRLEDMARWVLEAAGIREFELVTESSVVYGDTVDVMKGDLELASGAMGPHFLDEKWEIFDPWVGLGFGLERLLMIREGTQHVQSMARSLSYLDGVRLNIN
GSRRASVGSHEVEKSGLLNMTKIAQGGRKLRKNWGPSWVVLTGNSLVFYREPPPTAPSSGWGPAGSRPESSVDLRGAALAHGRHLSSRRNVLHIRTIPGHEFLLQSDHETELRAWHRALRTVIERLVRW
MNAKKRKGSAVERNIVSRLRDKGFAVVRAPASGSKRKDPIPDIIALKNGVIILIEMKSRKDIEGKIYVRREQAEGIIEFARKSGGSLFLGVKKPGVLKFIPFEKLRRTETGNYVADSEIEGLDLEDLVRLVEAKISRTLDNFL
MSVQDTKAVEFSMGHIRSSSVSLVAEATSNTNSEDKLSKVQLYEDLCRYEDTLSKLVESVDRFKPNLDIAKDLIRTDEALFENVKLLAEYDNIYRNLQKIDKDSEELDSKTRKILEILNECHDELKALPMLEQVEFEKNTILQQRSKINSTELLDYATKLSKFTKIPPTFDKGAVGPNNFIWPAEDALRRGMLAMASLHSKELTRIPGEEVEETEVPTVPPSQSEEQKGQMAKKEGTPKTDSFIFDGTAKEVGDEADNTKDKEKEENNDDALDLDLDLFDPDDF
MKALRGMISEKGGWNLTVNNDNNTVVSSGGALDLSSGSKNLKIVKDGKKNNVTFDVARDLTLKSIKLDGVTLNETGLFIANGPQITASGINAGSQKITGVAEGTDANDAVNFGQLKKIETEVKEQVAASGFVKQDSDTKYLTIGKDTDGDTINIANNKSDKRT
MTGKKRSASSSRWLQEHFSDKYVQQAQKKGLRSRAWFKLDEIQQSDKLFKPGMTVVDLGAAPGGWSQYVVTQIGGKGRIIACDLLPMDPIVGVDFLQGDFRDELVMKALLERVGDSKVQVVMSDMAPNMSGTPAVDIPRAMYLVELALEMCRDVLAPGGSFVVKVFQGEGFDEYLREIRSLFTKVKVRKPDSSRARSREVYIVATGRKP
MSLLSYQHIYHAGNLADVQKHALLALALDYLTRKDKPLSYLETHAGRGLYHLDAAEAVRTGEAGAGIGRAEGAAWFDPAHPMTRVLAAVRTDHGAMAYPGSPLVAAHLLRPGDMMHLAELHPQEHAALEQAMAGYPARVYRRDGVEMAQSLLPPEPRRGMMLIDPSYEVKSDYDRIPAVIAQLHRKWNVGVIALWYPILTDERHKVMLAALERLDLPRVLRHEVRFAPAREGHRMVGSGMFVINAPFGLADEAARLSGLFAQLEGHHHHHH
MTNLNYQQTHFVMSAPDIRHLPSDTGIEVAFAGRSNAGKSSALNTLTNQKSLARTSKTPGRTQLINLFEVADGKRLVDLPGYGYAEVPEEMKRKWQRALGEYLEKRQSLQGLVVLMDIRHPLKDLDQQMIEWAVDSNIAVLVLLTKADKLASGARKAQLNMVREAVLAFNGDVQVETFSSLKKQGVDKLRQKLDTWFSEMQPVEETQDGE
MGTKQYKDGTYYAEADDFDESGWKDTVTIEVKNGKIVSVDWNAINKDGGDDKDTLSRNGGYKMVEYGGAQAEWHEQAEKVEAYLVEKQDPTDIKYKDNDGHTDAISGATIKVKKFFDLAQKALKDAEKLEHHHHHH
MSLKKFYHLVVRILSKMITPQVIDKPHIVFMMTFPEDIKPIIKALNNSSYQKTVLTTPKQAPYLSELSDDVDVIEMTNRTLVKQIKALKSAQMIIIDNYYLLLGGYNKTSNQHIVQTWHASGALKNFGLTDHQVDVSDKAMVQQYRKVYQATDFYLVGCEQMSQCFKQSLGATEEQMLYFGLPRINKYYTADRATVKAELKDKYGITNKLVLYVPTYREDKADNRAIDKAYFEKCLPGYTLINKLHPSIEDSDIDDVSSIDTSTLMLMSDIIISDYSSLPIEASLLDIPTIFYVYDEGTYDQVRGLNQFYKAIPDSYKVYTEEDLIMTIQEKEHLLSPLFKDWHKYNTDKSLHQLTEYIDKMVTKEGGSHHHHHH

Soluble on expression in E. coli, not soluble:
MPTFTLRPYTEADEDPAIALWLRTWQLAYPAIDFTKRVDWWRERWRTELVPQAAIIVAEQDSALIGFVTIDAVGYLDQLVVEPEHWGWGVAEALVDEAKQRSPTEVTLKVNADNYRAIKFYRRNGFAVTSEELNSSGRPVLNMLWRPA
MAHHHHHHMKKNFPQSYNFFPLTWILPNEISDFKNYFKKESGSKTYIVKLKNSCQGKGIYLTKTLDNINKYDSCVIQKYIHKPLLINGLKFDIRLYVLVTGCDPLRIFLHEDGLVRFSIEKYKLPKSKNLKQVNMHLTNFSINKKSDKFENSPNPDDATMGHKRSWKAFLQKLKEEGLPMDSVMKRIEHMIVKTICSIQPELKHYYNSAHISDYSNSMCFEVLGFDILLDYKLKPWLLEVNHSPSFATSSLVDEKVKYAVIRDTLNMLYMHSKYRHIHIQEYLNLQKFRKKYSDVL
MIDRQTNEPKQKTRIILAPMQGLVDDVMRDLLTRIGGYDECVSEFVRITHTVHSRSIWLKYVPEIANGNKTFSGTPCTVQLLGSDADNMAANALEAVRFGANKIDLNFGCPAPTVNKHKGGAILLKEPELIFHIVKTLRGRLPAHIPLTAKMRLGYEDKSRALECACAIAEGGACGLTVHARTKAEGYEPPAHWEWIRKIRDSVNIPVTANGDVFSLQDYIGIKTISGCNSVMLGRGAVIRPDLARQIKQYENGGPVKDTDFAEVSKWIRQFFELCLTKEANNKYPLARLKQWLGMMKKEFAAAQNLFDRVRTVKDADEVRNILAEFEREMNT
MKKYLNQNVYDALIERLHFLFNDFPIVYISFSGGKDSGLLLNILLDFRDKYYPDREIGVFHQDFEAQYSLTTKYVQETFTSLEGRKKVSLYWVCLPMATRTALSSYEMFWYPWDDKTEDIWVRPMPSQDYVINLENNSITTYRYKMNQEDLAKQFGRWYKQIHGNQKTVCILGNRASESLHRYSGFINKKYGYQKECWITKQFKDVWTASPLYDWSVEDIWHAYYKFSYSYNELYDLFYKAGLKPSQMRVASPFQDYAVDSLNLYRIIDQETWVKLLGRVQGVNFSNIYGRTKAMGYKSIALPKGHSWKSYTQFLLSTLPVRLRNNYVRKFNKSIDFWHKTGGGLAEETINELIEKGYRIARNGISNYTSFKHSRVIFLDQIPDDTDDIVTTKDIPSWKRMCFCILKNDHICRTMGFGLTREQQKIVAFLKEKYKTSLKELESE
MSAFQPTIKRRESTKIYVGNVPIGGDAPIAVQSMTNTRTTDVEATVAQIKSLERVGADIVRVSVPTMDAAEAFKQIKQQVNVPLVADIHFDYRIALKVAEYGVDCLRINPGNIGREDRVRAVVDCARDKNIPIRIGVNAGSLEKDLQEKYGEPTPEALLESALRHVEILDRLNFDQFKVSVKASDVFLAVESYRLLAKAIKQPLHLGITEAGGARAGAVKSAVGLGMLLAEGIGDTLRVSLAADPVEEIKVGFDILKSLRIRSRGINFIACPTCSRQEFDVIGTVNALEQRLEDIITPMDVSIIGCVVNGPGEALVSDLGVTGGNKKSGYYLDGERQKERFDNEDIVNQLEAKIRAKVARQDPKNRII
MAHHHHHHMALQENRDSYKVKALSLSEFVQQCSDCHQLCLEKTVRVLDNRSRAPRGWEALFNSVAEERRSEDLDLCESRCRYMQTTCPSQDKVQQYEQALAAASLKLKKSTPPNPSVLQDASRCEHAVEVFSNVLFALAHKPSKVSFPTKDLKTGGNTDAESHAGAPTEAHRKVLEGAKNMDNDVSCRSSKLRHERFGSKAQDVASSTGSSLAPDTAAASPASSGTTPKW
MGHHHHHHSHMAFPPGALHPLPKRQALEKSNGTSAVFNPSVLHYQQALTSAQLQQHAAFIPTDNSEIISRNGMECQESALRITKHCYCTYYPVSSSIELPQTAC
MGSDKIHHHHHHMPTSALDGKDTAAIQAATAEVAVYDRSNWGLIRVSDDDRLRFLHNQSTNDFQSLKPGQGCETVMVTSTARTIDLVSSYVLNDAVILLVSSSRREFLLQWLDRYIFFADKVQLTDITDETATLSIIGPGSDAVVEKLGAGEIIGQPHGNHITIDGGVVAAVGSGLASPGYTLILPVSQKQQVWQQILDSGAVELSDRAWDTLRILQGRPAPDAELTDDYNPLEVGLWQTISFSKGCYIGQETIARLNTYKGVKQHLWGIRLNAPAEIGDSINIGDEKVGKLTSYTETPDGYFGLAYIRSKAGGVGLKVQVGNSEGEVVAIPFVSHEYP
MPQSYIVRTMRPADVEAVLRVQAAVYPASLLESAALFQNRIEIAPATCQVALDGQDLIGYLIAYPWDAGLPPALDRSLERLPGAADTWFVHDCAVLPAAQGGGVAAALLAGGRAQARRLGLRRASLVALAPAVGYWLRHGYQPLADSDALRAKLAGYGDGARYMVRADLAG
MKDAQLNTLCQRHQAVLINSASNSITVAVVDAPSHALLDALHFATQKQIDIVCWTRQQMENHRHKPDQAPSANAAKGGETAAQLLNQTLRSAMAKRASDIHLEPGASRYRIRLRIDGVLHILQDIAKETGLALTARLKVLGNLDIAEHRLPQDGQFTVDLAGDSISFRIATLPCKEGEKVVLRLLHQVEQTLDLDTLGMYGAQLTAFRQALQQPQGLVLVTGPTGSGKTVTLYSALQTRNTPGINLCSVEDPIEIPLDGINQTQIHPRAGLTFQNVLRALLRQDPDIIMVGEIRDGDTAEIAIKAAQTGHLVLSTLHTNSTSETLIRLQQMGVARWMISSALTLVVAQRLVRKLCPHCKQRLSDPVVLSPNLWPSAIPRWQASGCQHCYHGFYGRTALFEVLTVTPALRQLIASGASAQALEAHLQQTGTGTLFENGCRAVEQGMTSFEEILCVLGMPHER
MIEITVNDRLGKKVRIKCNPSDTIGDLKKLIAAQTGTRWEKIVLKKWYTIYKDHITLMDYEIHEGFNFELYYQ
MITMIYKGNRAAWAYIVARTKVMKSRLLKPEDFRKLLNMEFDEIVRYIGETEYKKEIDELGYKFTGPRLLDHALYANLARTYRKLIEVSFGASKFLIMKYLEKWDVWNIINIIRGKMANVQPEVVDDILVPAGERDMDFWKTLLVKDIEEIVKSFEGTPYYEPLSKIGSEDMSKIEDGLYKVYYRELLKLNPSDFAMKLFLDFIKMEIDIRNVKTLLRLKAEDATPDEIMECTIPGGYELTEEELRKLAAMPIDEMIKALEGYWFWNDVQIEGKEVAAVEIEFDKVWIKTISKRASNYPLSILPVLQYIVLKKVEVDNLRVLGWGKYYGLPSEEIERQMVIL
MGSDKIHHHHHHMKALIEVHNLWKEYNGKEKVTALKGINLRINTGEFVVILGPSGSGKTTLLNCLSGVDRPTRGTVIIHGTDLYTLSEEERTRFRAENMGFVFQFFNLVPVLTAIENVELPLLILGVNRKEARERAFEILRKVGLAHKCDRFPEELSGGEKQRVAIARAIVHNPKVIWADEPTGALDNETGRMIIDLLMEMKENSTLVVVTHDERIAEKADRVIRIRDGQIEQDICEKAL
KTNTEQFCASCHMQDAYPEYLHSVHYQTRTGVGASCPDCHVPHEFGAKMKRKIIAAKEVYAHYTGKVDTLEKFNAHRLEMAQNEWARMKANDSKECRNCHNVDRMTFNDQRSVAARMHQKMKTEGKTCIDCHKGIAHQLPDMSGVESGFKDEK
